Data on two molecules can be found in patent publication US20200377587A1.

The target of assay [1] is IL-8 (UniProt P10145). As to the kind of experiment: cell-based or functional assay.
The target of assay [2] is IL-8 (UniProt P10145). As to the kind of experiment: SPR, scFv, preliminary KD, lowest and highest value. For orientation: SPR reads the build-up and loss of mass on a sensor chip optically.
In assay [3] the target is IL-8 (UniProt P10145). As to the kind of experiment: SPR, immobilized IL-8, scFv, 25 C.
Assay [4] concerns the target IL-8 (72-mer) (UniProt P10145). As to the kind of experiment: binding kinetics, FIG. 1B.
The target of assay [5] is IL-8 (77-mer) (UniProt P10145). Description: binding kinetics, FIG. 1B.
Chain of IL-8 (77-mer) (P10145 23-99 limits assumed): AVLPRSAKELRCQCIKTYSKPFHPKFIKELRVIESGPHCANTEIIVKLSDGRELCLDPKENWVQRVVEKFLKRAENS

Chain of IL-8 (P10145 28-99 limits assumed): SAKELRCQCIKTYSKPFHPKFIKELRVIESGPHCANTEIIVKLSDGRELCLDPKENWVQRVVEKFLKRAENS
Chain of IL-8 (72-mer) (P10145 28-99 limits assumed): as above

B1: scFv 49-31 (scFv, part only; not given: linker and domain order, V domains shown, not shown: another chain or arm of the molecule; small tags and cut ends)
VH: EVQLVESGGGLVQPGGSLRLSCAASGFTFSSYYMHWVRQAPGKGLEWVSAISGGGSSTYYADSVKGRFTISRDNSKNTLYLQMNSLRAEDTAVYYCARDLRIFEGRDAGFDVWGQGTLVTVS
VL: DIQMTQSPSSLSASVGDRVTITCQASQDISNYLNWYQQKPGKAPKLLIYDASNLETGVPSRFSGSGSGTDFTFTISSLQPEDIATYYCQQDDDVPWTFGQGTKVEIK
The Kd is the constant that tells how readily two partners part at equilibrium. With B1, in assay [1], the reduction of transmigration of neutrophils (IL-8 mediated neutrophil chemotaxis, transwell, 1 nM IL-8, 1.5 and 3 hours) was 30 to 70%. In addition, the dissociation constant (Kd) in assay [2] is 0.009 to 0.048 nM; in assay [3], 0.009 to 0.048 nM; in assay [4], 0.147 nM; in assay [5] it was 0.12 nM.

B2: scFv 49-1 (scFv, part only; not given: linker and domain order, V domains shown, not shown: another chain or arm of the molecule; small tags and cut ends)
VH: EVQLVESGGGLVQPGGSLRLSCAASGFTFSSYWMHWVRQAPGKGLEWVSAISWSGGSTSYADSVKGRFTISRDNSKNTLYLQMNSLRAEDTAVYYCARDLTWWVQAFDVWGQGTLVTVSS
VL: DIQMTQSPSSLSASVGDRVTITCQASQDISNYLNWYQQKPGKAPKLLIYDASNLETGVPSRFSGSGSGTDFTFTISSLQPEDIATYYCQQVDDSPLTFGQGTKVEIK
Consider B2, for which, in assay [3], the Kd turned out to be 2.66 nM. That is a single-digit nanomolar value.
